First the molecules themselves.
B1: Azoarcus group I ribozyme (parent)
chain: GUGCCUUGCGCCGGGAAACCACGCAAGGGAUGGUGUCAAAUUCGGCGAAACCUAAGCGCCCGCCCGGGCGUAUGGCAACGCCGAGCCAAGCUUCGGCGCCUGCGCCGAUGAAGGUGUAGAGACUAGACGGCACCCACCUAAGGCAAACGCUAUGGUGAAGGCAUAGUCCAGGGAGUGGCGAAAGUCACACAAACCGG

In the series the parent is B1. Put plainly: reverse-splicing fitness (ratio to wild type); higher = more active; in vitro selection; Mg2+ level not given. In outline:
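An in vitro group I ribozyme library with randomized positions was T7-transcribed and gel-purified. In triplicate, 10 pmol RNA in EPPS pH 7.5 was reacted with 50 pmoles of a 30-nt RNA substrate for 1 h at 37 °C across several added MgCl2 levels (1–48 mM), then stopped with EDTA. Products were reverse transcribed from a substrate-complementary primer, PCR-amplified and sequenced (HiSeq 4000). Fitness is a variant's read proportion after selection over that before, normalised to wild type.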
For the variant C82U A111G A120C A145C C150U C169A, the reverse-splicing fitness is 0.00705.

C82U A111G A120C A145C C150U C169G: the reverse-splicing fitness came to 0.0077.

With C82U A111G A120C A145C C150A C169G U176A, the reverse-splicing fitness was determined as 0.0198.

In the case of C82U A111G A120C A145C C150A C169G U176G, the reverse-splicing fitness was determined as 0.00451.

C82U A111G A120C A145C C150A C169G U176C: the reverse-splicing fitness is 0.00993.

As to C82U A111C A145U C169U, the reverse-splicing fitness amounted to 0.0114.

In the case of C82U A111C C150G C169A, the reverse-splicing fitness worked out at 0.00807.

For the variant C82U A111C C150G C169U, the reverse-splicing fitness was 0.00902.

Turning to C82U A111C C150G C169G, the reverse-splicing fitness turned out to be 0.00661.

For C82U A111C C150A U176A, the reverse-splicing fitness was 0.0143.

As for C82U A111C C150A U176C, the reverse-splicing fitness stood at 0.0276.

As for C82U A111C C150A U176G, the reverse-splicing fitness is 0.00812.

As for C82U A111G A120C, the reverse-splicing fitness was determined as 0.0555.

In the case of C82U A111G A120C A145G C150A C169A, the reverse-splicing fitness was 0.00928.

For the variant C82U A111G A120C A145G C150A C169U, the reverse-splicing fitness was 0.0111.

As to C82U A111G A120C A145G C150A C169G, the reverse-splicing fitness worked out at 0.0105.

On to C82U A111C C169A U176A, for which the reverse-splicing fitness was 0.016.

For the variant C82U A111C C169A U176G, the reverse-splicing fitness came to 0.00617.

Take C82U A111C C169A U176C: the reverse-splicing fitness was 0.0243.

With C82U A111G A120C A145C C150U C169G U176C, the reverse-splicing fitness stood at 0.00801.

In the case of C82U A111G A120C A145C C150U C169G U176G, the reverse-splicing fitness came to 0.00444.

C82U A111G A120C A145C C150U C169G U176A: the reverse-splicing fitness worked out at 0.0173.

For C82U A111C C150G C169A U176C, the reverse-splicing fitness turned out to be 0.00957.

On to C82U A111C C150G C169A U176A, for which the reverse-splicing fitness worked out at 0.00878.

Turning to C82U A111C C150G C169A U176G, the reverse-splicing fitness is 0.00672.

For C82U A111C C150A C169U U176A, the reverse-splicing fitness was found to be 0.0166.

On to C82U A111C C150A C169U U176C, for which the reverse-splicing fitness turned out to be 0.0169.

Take C82U A111C C150A C169U U176G: the reverse-splicing fitness amounted to 0.00777.

As for C82U A111C C150U C169U U176C, the reverse-splicing fitness was determined as 0.0145.

In the case of C82U A111C C150U C169U U176G, the reverse-splicing fitness is 0.00713.

For C82U A111C C150U C169U U176A, the reverse-splicing fitness was 0.0192.

With C82U A111G A120C A145C C169G U176A, the reverse-splicing fitness was determined as 0.0164.

For C82U A111G A120C A145C C169G U176G, the reverse-splicing fitness is 0.00381.

Consider C82U A111G A120C A145C C169G U176C, for which the reverse-splicing fitness stood at 0.00852.

For C82U A111G A120C A145C C150G C169U U176A, the reverse-splicing fitness amounted to 0.00787.

Turning to C82U A111G A120C A145C C150G C169U U176C, the reverse-splicing fitness amounted to 0.0112.

For the variant C82U A111G A120C A145C C150G C169U U176G, the reverse-splicing fitness is 0.00424.

For C82U A111C C169G, the reverse-splicing fitness stood at 0.00866.

C82U A111C C169A: the reverse-splicing fitness is 0.00958.

Consider C82U A111C C169U, for which the reverse-splicing fitness came out at 0.0123.

As to C82U A111C A145U U176C, the reverse-splicing fitness was 0.103.

Regarding C82U A111C A145U U176G, the reverse-splicing fitness turned out to be 0.0238.

In the case of C82U A111C A145U U176A, the reverse-splicing fitness was 0.0808.

With C82U A111G A120C A145C U176C, the reverse-splicing fitness turned out to be 0.0213.

Turning to C82U A111G A120C A145C U176A, the reverse-splicing fitness came to 0.0156.

Take C82U A111G A120C A145C U176G: the reverse-splicing fitness was 0.00487.

For C82U A111G A120C A145C C150U C169A U176G, the reverse-splicing fitness turned out to be 0.00468.

For C82U A111G A120C A145C C150U C169A U176C, the reverse-splicing fitness is 0.00487.

In the case of C82U A111G A120C A145C C150U C169A U176A, the reverse-splicing fitness was found to be 0.00891.

Regarding C82U A111C C169G U176A, the reverse-splicing fitness was 0.0181.

Regarding C82U A111C C169G U176G, the reverse-splicing fitness was 0.007.

On to C82U A111C C169G U176C, for which the reverse-splicing fitness came to 0.024.

Consider C82U A111G A120C A145C C169U U176G, for which the reverse-splicing fitness was 0.0032.

In the case of C82U A111G A120C A145C C169U U176C, the reverse-splicing fitness was found to be 0.0107.

Turning to C82U A111G A120C A145C C169U U176A, the reverse-splicing fitness was determined as 0.0142.

C82U A111G A120C A145C C150A C169A: the reverse-splicing fitness turned out to be 0.00689.

With C82U A111G A120C A145C C150A C169G, the reverse-splicing fitness stood at 0.00759.

Consider C82U A111G A120C A145C C150A C169U, for which the reverse-splicing fitness was 0.00924.

In the case of C82U A111G A120C A145C C150G C169G U176C, the reverse-splicing fitness was found to be 0.004.

Take C82U A111G A120C A145C C150G C169G U176G: the reverse-splicing fitness is 0.00397.

In the case of C82U A111G A120C A145C C150G C169G U176A, the reverse-splicing fitness was determined as 0.00761.

For C82U A111G A120C A145G C150G C169U U176C, the reverse-splicing fitness amounted to 0.0109.

For C82U A111G A120C A145G C150G C169U U176A, the reverse-splicing fitness stood at 0.00704.

In the case of C82U A111G A120C A145G C150G C169U, the reverse-splicing fitness amounted to 0.00846.

Consider C82U A111G A120C A145G C150G C169A, for which the reverse-splicing fitness worked out at 0.00845.

Take C82U A111G A120C A145G C150G C169G: the reverse-splicing fitness was determined as 0.00678.

C82U A111G A120C A145C C150G C169U: the reverse-splicing fitness worked out at 0.00749.

C82U A111G A120C A145C C150G C169G: the reverse-splicing fitness amounted to 0.00679.

In the case of C82U A111G A120C A145C C150G C169A, the reverse-splicing fitness was 0.0076.

Turning to C82U A111C C150U C169U, the reverse-splicing fitness came to 0.0116.

As for C82U A111C C150U C169A, the reverse-splicing fitness is 0.00914.

C82U A111C C150U C169G: the reverse-splicing fitness was 0.00731.

Take C82U A111G A120C A145C C150U U176A: the reverse-splicing fitness turned out to be 0.0105.

In the case of C82U A111G A120C A145C C150U U176G, the reverse-splicing fitness is 0.00465.

As to C82U A111G A120C A145C C150U U176C, the reverse-splicing fitness was determined as 0.0114.

With C82U A111G A120C A145C C150G U176A, the reverse-splicing fitness was 0.00388.

For the variant C82U A111G A120C A145C C150G U176C, the reverse-splicing fitness amounted to 0.00742.

As to C82U A111G A120C A145C C150G U176G, the reverse-splicing fitness worked out at 0.00231.

For C82U A111G A120C A145G C150A C169U U176A, the reverse-splicing fitness came out at 0.015.

Regarding C82U A111G A120C A145G C150A C169U U176G, the reverse-splicing fitness worked out at 0.00508.

Turning to C82U A111G A120C A145G C150A C169U U176C, the reverse-splicing fitness turned out to be 0.014.

As to C82U A111C C150G C169U U176A, the reverse-splicing fitness came to 0.00814.

With C82U A111C C150G C169U U176C, the reverse-splicing fitness came to 0.0111.

As to C82U A111C C150G C169U U176G, the reverse-splicing fitness came to 0.00577.

The values above are taken from the RNAGym collection of RNA variant scans (doi:10.1093/molbev/msab373).
